Measured values: article PMC8008353 (The Journal of Biological Chemistry, 2005)

Target: the molecule itself
Experiment: AUC

Protein | stoichiometry N
NF4 (N protein fragment, residues 285-422) (domain or fragment) GNFGDQDLIRQGTDYKHWPQIAQFAPSASAFFGMSRIGMEVTPSGTWLTYHGAIKLDDKDPQFKDNVILLNKHIDAYKTFPPTEPKKDKKKKTDEAQPLPQRQKKQPTVTLLPAADMDDFSRQLQNSMSGASADSTQA | 2
NF2 (N protein fragment, residues 211-422) (domain or fragment) MASGGGETALALLLLDRLNQLESKVSGKGQQQQGQTVTKKSAAEASKKPRQKRTATKQYNVTQAFGRRGPEQTQGNFGDQDLIRQGTDYKHWPQIAQFAPSASAFFGMSRIGMEVTPSGTWLTYHGAIKLDDKDPQFKDNVILLNKHIDAYKTFPPTEPKKDKKKKTDEAQPLPQRQKKQPTVTLLPAADMDDFSRQLQNSMSGASADSTQA | 2
